Changes are numbered by the printed parent chain.
Tests used:
[1] = molecular target: T1, murine CCR2 (murine, UniProt P51683 1-373); test: flow cytometry on WEHI 274.1 cells (murine CCR2), PE anti-human IgG
T1 construct: whole, on cells; also called mouse CCR2; murine CCR2-expressing cells (WEHI 274.1)
Protocol: In this example, WEHI 274.1 cells were resuspended in FACS Buffer (2% Fetal Bovine Serum in PBS) at 1×10⁶ cells and […] of cell suspension was aliquoted into the wells of a 96-well plate. Plated cells were spun down and the supernatant discarded. Cells were resuspended in 30 μl FACS Buffer containing serially diluted anti-CCR2 IgGs in triplicate. Plates were incubated for 1 hr at 4° C., then washed 2× with FACS Buffer. Cells were resuspended in 50 μl goat anti-human IgG (γ-chain specific)-PE conjugated secondary antibody (Southern Biotech #2040-09) diluted 1:500 in FACS Buffer, incubated for 30 min at 4° C. and then washed 1× with FACS Buffer. The cells were resuspended in a final volume of 30 μl FACS Buffer and analyzed using the Intellicyt Flow Cytometer. Median fluorescence in the FL-2H channel was determined using FlowJo software and EC₅₀ values were determined by plotting the data in GraphPad Prism and analyzed using a variable slope non-linear regression.

[2] = molecular target: T2, human CCR2 (CC-Chemokine Receptor 2) (human, UniProt P41597 1-374); test: cell-based or functional assay
[3] = molecular target: T1, murine CCR2; test: cell-based or functional assay
[4] = molecular target: T2, human CCR2 (CC-Chemokine Receptor 2); test: cell-based or functional assay; remark: listed apart in the source
[5] = molecular target: T2, human CCR2 (CC-Chemokine Receptor 2); test: flow cytometry on CHO-CCR2 cells (FIG. 1)
Protocol: (§1) The data in FIG. 1 illustrates in vitro data for cellular binding EC₅₀ measurements. […] In this example, CHO-CCR2 cells were lifted from culture flasks using non-enzymatic Cell Dissociation Buffer—PBS based (Life Technologies #13151-014). Cells were resuspended in FACS Buffer (2% Fetal Bovine Serum in PBS) at 1×10⁶ cells/ml and 100 μl (1×10⁵ cells) were aliquoted into the wells of a 96-well plate. Plated cells were spun down and the supernatant discarded. Cells were resuspended in 50 μl FACS Buffer containing the indicated concentrations of CCR2 D1 IgG in triplicate (FIG. 1). Plates were incubated for 1 hr at 4° C., then washed 1× with FACS Buffer. Cells were resuspended in 50 μl goat anti-human IgG (γ-chain specific)-PE conjugated secondary antibody (Southern Biotech #2040-09) diluted 1:500 in FACS Buffer. Cells were further incubated for 30 min at 4° C. and then washed 1× with FACS Buffer. The cells were resuspended in a final volume of 25 μl FACS Buffer and analyzed using the Intellicyt Flow Cytometer. Median fluorescence in the FL-2H channel was determined using FlowJo software and EC₅₀ value was determined by plotting the data in GraphPad Prism and analyzing using a variable slope non-linear regression.

[6] = molecular target: T2, human CCR2 (CC-Chemokine Receptor 2); test: flow cytometry on CHO-huCCR2 cells, PE anti-human IgG
Protocol: as §1

[7] = molecular target: T1, murine CCR2; test: cell-based or functional assay; remark: listed apart in the source
[8] = molecular target: T1, murine CCR2; test: flow cytometry on murine CCR2-expressing cells (FIG. 2)
[9] = molecular target: T2, human CCR2 (CC-Chemokine Receptor 2); test: cell-based or functional assay; remark: listed apart in the source
[10] = molecular target: T2, human CCR2 (CC-Chemokine Receptor 2); test: cell-based or functional assay; remark: listed apart in the source

T1 sequence (P51683 whole entry): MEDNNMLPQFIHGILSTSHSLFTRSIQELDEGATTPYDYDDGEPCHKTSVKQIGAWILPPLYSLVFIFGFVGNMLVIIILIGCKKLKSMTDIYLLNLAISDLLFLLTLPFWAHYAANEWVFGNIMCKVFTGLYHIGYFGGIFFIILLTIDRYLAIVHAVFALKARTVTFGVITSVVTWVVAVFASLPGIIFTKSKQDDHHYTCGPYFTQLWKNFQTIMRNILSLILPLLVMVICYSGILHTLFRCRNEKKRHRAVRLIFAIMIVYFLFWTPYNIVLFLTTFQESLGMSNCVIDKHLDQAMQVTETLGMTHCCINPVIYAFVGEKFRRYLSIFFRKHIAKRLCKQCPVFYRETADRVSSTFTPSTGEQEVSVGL
T2 sequence (P41597 whole entry): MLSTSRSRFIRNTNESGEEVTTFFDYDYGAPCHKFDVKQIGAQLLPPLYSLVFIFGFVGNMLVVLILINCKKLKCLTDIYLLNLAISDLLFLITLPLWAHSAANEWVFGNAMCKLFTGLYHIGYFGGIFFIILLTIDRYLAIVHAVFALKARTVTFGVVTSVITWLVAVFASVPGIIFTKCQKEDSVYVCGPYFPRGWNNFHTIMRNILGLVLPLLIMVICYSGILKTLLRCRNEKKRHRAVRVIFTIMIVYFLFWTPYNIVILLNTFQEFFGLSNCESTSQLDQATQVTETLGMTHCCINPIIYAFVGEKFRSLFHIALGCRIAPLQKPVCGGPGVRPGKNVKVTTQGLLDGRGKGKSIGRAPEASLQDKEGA

B1: D1 (antibody, human IgG1, V domains shown)
VH: EVQLVQSGAEVKKPGASVKVSCKASGYTFTGYHMHWVRQAPGQGLEWMGWINPNSGVTKYAQKFQGRVTMTRDTSINTAYMELSRLRFDDTDVYYCATGGFGYWGEGTLVTVSS
VL: LPVLTQPPSVSKGLRQTATLTCTGNSNNVGNQGAAWLQQHQGQPPKLLSYRNHNRPSGVSERFSPSRSGDTSSLTITGLQPEDEADYYCLAWDSSLRAFVFGTGTKLTVL
notes: also called CCR2 D1 IgG; anti-CCR2 D1 antibody
Question: With B1 as the binder, how does the EC50 [1] read?
Answer: 1.5 nM

Question: And the “IC50 in chemotaxis assay using human THP-1 cells, ligand MCP-1 (3 nM)” value [2]?
Answer: 0.17 nM

Question: What about the “IC50 in chemotaxis assay using human THP-1 cells, ligand MCP-2 (6.7 nM)” value [2] of the same binder?
Answer: 0.17 nM

Question: What about the “IC50 in chemotaxis assay using human THP-1 cells, ligand MCP-3 (1.1 nM)” value [2] of the same binder?
Answer: 0.11 nM

Question: What about the “IC50 in chemotaxis assay using human THP-1 cells, ligand MCP-4 (35 nM)” value [2] of the same binder?
Answer: 0.14 nM

Question: What about the “IC50 in chemotaxis assay using human THP-1 cells, ligand MCP-5 (0.65 nM)” value [2] of the same binder?
Answer: 0.19 nM

Question: And the “IC50 of D1 on mMCP-1 induced WEHI 274.1 cell migration” value [3]?
Answer: 66 nM

Question: And the “IC50 of D1 on MCP-1 (1 nM) induced primary human monocyte migration, another donor” value [4]?
Answer: 3.48 nM

Question: And the “IC50 of D1 on MCP-1 (1 nM) induced primary human monocyte migration, first donor” value [4]?
Answer: 1.02 nM

Question: What about the “IC50 of D1 on MCP-1 (3 nM) induced THP-1 cell migration” value [4] of the same binder?
Answer: 0.194 nM

Question: What about the “IC50 of D1 on MCP-1 (10 nM) induced THP-1 calcium mobilization” value [4] of the same binder?
Answer: 4.7 nM

Question: And the “IC50 of D1 on MCP-1 (10 nM) induced primary human monocyte calcium mobilization” value [4]?
Answer: 2.8 nM

Question: What about the EC50 [5] of the same binder?
Answer: 0.168 nM

Question: What about the EC50 [6] of the same binder?
Answer: 0.17 nM

Question: What about the “IC50 in chemotaxis assay using mouse WEHI cells, ligand mouse MCP-1 (0.7 nM)” value [7] of the same binder?
Answer: 0.062 nM

Question: What about the EC50 [8] of the same binder?
Answer: ~17 nM

Question: What about the “IC50 in calcium flux assay using human THP-1 cells, ligand MCP-1 (2.5 nM)” value [9] of the same binder?
Answer: 0.18 nM

Question: And the “IC50 in calcium flux assay using human THP-1 cells, ligand MCP-3 (22 nM)” value [9]?
Answer: 0.19 nM

Question: What about the “IC50 in calcium flux assay using human THP-1 cells, ligand MCP-5 (0.43 nM)” value [9] of the same binder?
Answer: 0.28 nM

Question: What about the “IC50 on MCP-1 induced THP-1 cell migration” value [10] of the same binder?
Answer: 0.168 nM

Question: And the “IC50 on MCP-2 induced THP-1 cell migration” value [10]?
Answer: 0.172 nM

Question: What about the “IC50 on MCP-3 induced THP-1 cell migration” value [10] of the same binder?
Answer: 0.854 nM

Question: And the “IC50 on MCP-4 induced THP-1 cell migration” value [10]?
Answer: 0.138 nM

Question: And the “IC50 on mouse MCP-5 induced THP-1 cell migration” value [10]?
Answer: 0.19 nM

B2: D1-1/45H8L1 (antibody, V domains shown)
VH: B1 VH with E1Q, H33Y, I76T, N77S, A79V, R85S, F88S, D89E, D92A
VL: B1 VL with L1Q, P2A
notes: also called D1H1/45H8L1; D1-1B
Question: Which results are given for B2?
Answer: EC50 [1]: 2 nM; IC50 in chemotaxis assay using human THP-1 cells, ligand MCP-1 (3 nM) [2]: 0.28 nM; IC50 in chemotaxis assay using human THP-1 cells, ligand MCP-4 (35 nM) [2]: 0.08 nM; EC50 [6]: 0.15 nM; IC50 in chemotaxis assay using mouse WEHI cells, ligand mouse MCP-1 (0.7 nM) [7]: 0.012 nM; IC50 in calcium flux assay using human THP-1 cells, ligand MCP-1 (2.5 nM) [9]: 0.37 nM; IC50 in calcium flux assay using human THP-1 cells, ligand MCP-3 (22 nM) [9]: 0.19 nM; IC50 in calcium flux assay using human THP-1 cells, ligand MCP-5 (0.43 nM) [9]: 0.27 nM

— patent US20130344070A1 (SORRENTO THERAPEUTICS, published 2013)
